Results from paper PMC11066036, “HPK1 citron homology domain regulates phosphorylation of SLP76 and modulates kinase domain interaction dynamics” (Nature Communications, 2024).
Changes are numbered by the printed parent chain. Names and notes keep the numbering of the source.

B1: HPK1 kinase domain S171A (KD SA) (domain or fragment, UniProt Q92918 2-293, looked up)
chain: DVVDPDIFNRDPRDHYDLLQRLGGGTYGEVFKARDKVSGDLVALKMVKMEPDDDVSTLQKEILILKTCRHANIVAYHGSYLWLQKLWICMEFCGAGSLQDIYQVTGSLSELQISYVCREVLQGLAYLHSQKKIHRDIKGANILINDAGEVRLADFGISAQIGATLARRLAFIGTPYWMAPEVAAVALKGGYNELCDIWSLGITAIELAELQPPLFDVHPLRVLFLMTKSGYQPPRLKEKGKWSAAFHNFIKVTLTKSPKKRPSATKMLSHQLVSQPGLNRGLILDLLDKLKN
notes: source: recombinant, purified
B2: HPK1 kinase domain T165E/S171E (KD TSEE WT) (domain or fragment, UniProt Q92918 2-293, looked up)
chain: B1 chain with T164E, A170E
notes: HPK1 (MAP4K1) kinase domain, residues D2-N293, with the phosphomimetic mutations T165E/S171E; also called WT KD; active TSEE form; source: recombinant, purified
B3: HPK1 kinase domain T165E/S171E/L221K (KD TSEE L221K) (domain or fragment, UniProt Q92918 2-293, looked up)
chain: B1 chain with T164E, A170E, L220K
notes: HPK1 (MAP4K1) kinase domain, residues D2-N293, TSEE backbone with L221K; source: recombinant, purified
B4: HPK1 intact citron homology domain fragment (C428-E821), untagged (domain or fragment, UniProt Q92918-2 428-821, looked up)
chain: CASGPPPNSPRPGPPPSTSSPHLTAHSEPSLWNPPSRELDKPPLLPPKKEKMKRKGCALLVKLFNGCPLRIHSTAAWTHPSTKDQHLLLGAEEGIFILNRNDQEATLEMLFPSRTTWVYSINNVLMSLSGKTPHLYSHSILGLLERKETRAGNPIAHISPHRLLARKNMVSTKIQDTKGCRACCVAEGASSGGPFLCGALETSVVLLQWYQPMNKFLLVRQVLFPLPTPLSVFALLTGPGSELPAVCIGVSPGRPGKSVLFHTVRFGALSCWLGEMSTEHRGPVQVTQVEEDMVMVLMDGSVKLVTPEGSPVRGLRTPEIPMTEAVEAVAMVGGQLQAFWKHGVQVWALGSDQLLQELRDPTLTFRLLGSPRPVVVETRPVDDPTAPSNLYIQE
notes: HPK1 (MAP4K1), fragment left after thrombin cut after R427: two PR domains and the intact CHD, residues C428-E821; the protein is printed as M1-E821 (821 residues); Cut out of a full-length construct (T165E, S171E, R319A, thrombin site inserted after V384); none of these changes lies in the fragment; also called WT-CHD; CHD WT; source: sf9, purified; thrombin digest of full-length HPK1 (Ni, …)
B5: SLP76 with SmBit tag (natural protein, UniProt Q13094 1-533, looked up)
chain: MALRNVPFRSEVLGWDPDSLADYFKKLNYKDCEKAVKKYHIDGARFLNLTENDIQKFPKLRVPILSKLSQEINKNEERRSIFTRKPQVPRFPEETESHEEDNGGWSSFEEDDYESPNDDQDGEDDGDYESPNEEEEAPVEDDADYEPPPSNDEEALQNSILPAKPFPNSNSMYIDRPPSGKTPQQPPVPPQRPMAALPPPPAGRNHSPLPPPQTNHEEPSRSRNHKTAKLPAPSIDRSTKPPLDRSLAPFDREPFTLGKKPPFSDKPSIPAGRSLGEHLPKIQKPPLPPTTERHERSSPLPGKKPPVPKHGWGPDRRENDEDDVHQRPLPQPALLPMSSNTFPSRSTKPSPMNPLPSSHMPGAFSESNSSFPQSASLPPYFSQGPSNRPPIRAEGRNFPLPLPNKPRPPSPAEEENSLNEEWYVSYITRPEAEAALRKINQDGTFLVRDSSKKTTTNPYVLMVLYKDKVYNIQIRYQKESQVYLLGTGLRGKEDFLSVSDIIDYFRKMPLLLIDGKNRGSRYQCTLTHAAGYP
notes: SLP76 (SH2 domain-containing leukocyte protein of 76 kD); also called SH2 domain-containing leukocyte protein of 76 kD; source: HPK1-/- Jurkat cells, transiently transfected, in live cells

Tests used:
[1] = target: B4; assay: SPR; Biacore T200; KD variants captured (56-73 RU) by a biotinylated anti-KD Fab on NeutrAvidin chip; WT-CHD injected as analyte at various concentrations; 20 mM HEPES, 300 mM NaCl, 0.1% polysorbate 20, 0.5 mM TCEP, pH 7.4; 25 °C; settings: both partners purified
[2] = target: T1, HPK1 intact citron homology domain fragment with C-terminal Flag (Flag-CHD) (UniProt Q92918-2 428-821); assay: AlphaScreen or HTRF; TR-FRET saturation binding; KD at 5 µM constant, Flag-CHD 1.53 nM-6.25 µM; anti-KD biotinylated Fab with streptavidin-Lumi4Tb and anti-Flag-d2; 20 mM HEPES, 300 mM NaCl, 0.1% polysorbate 20, 0.5 mM TCEP, pH 7.4; apparent KD, called overestimated by the paper; settings: both partners purified
T1 construct: HPK1 (MAP4K1), intact CHD fragment from thrombin digestion of the full-length protein; the cut is told as after R427 (C428-E821) for the untagged construct; the protein is printed as M1-E821 (821 residues); the Flag form was made by the same digestion; also called intact CHD with C-flag; recombinant Flag-CHD; source: sf9, purified; thrombin digest of full-length HPK1 with C-terminal Flag (Ni, …)
T1 sequence (looked up): B4 chain

[3] = target: full-length HPK1 (M1-E821, T165E, S171E, R319A, Y381E) with N-terminal His tag and C-terminal Flag (UniProt Q92918-2 1-821, T165E | S171E | R319A | Y381E, Isoform 2 (821 aa): C-terminus taken from 8EEC (entity position = residue - 478). N-terminal His and C-terminal Flag left out. A thrombin site after V384 may be present, but its sequence and its prese); assay: AlphaScreen or HTRF; TR-FRET competition; 5 nM full-length HPK1 with C-terminal Flag labelled with anti-KD Fab-streptavidin-Lumi4Tb and anti-Flag-d2; untagged CHD titrated (23.84-97.65 µM as printed) against the KD-CHD interaction within the full-length protein; One site - Fit Ki; settings: both partners purified
[4] = target: T2, HPK1 ΔCHD with LgBit tag (UniProt Q92918 1-483); assay: split reporter (BiFC, NanoBiT); NanoBit in live HPK1-/- Jurkat cells transiently transfected with SmBit-tagged SLP76 and LgBit-tagged HPK1 forms; luminescence over time, with or without TCR stimulation (anti-CD3 and anti-IgG); settings: partners not purified
T2 construct: HPK1 (MAP4K1) without the CHD, M1-G483; limits as printed for the pMSCV construct of the same name; also called KD + 4PRs; source: HPK1-/- Jurkat cells, transiently transfected, in live cells
T2 sequence (looked up): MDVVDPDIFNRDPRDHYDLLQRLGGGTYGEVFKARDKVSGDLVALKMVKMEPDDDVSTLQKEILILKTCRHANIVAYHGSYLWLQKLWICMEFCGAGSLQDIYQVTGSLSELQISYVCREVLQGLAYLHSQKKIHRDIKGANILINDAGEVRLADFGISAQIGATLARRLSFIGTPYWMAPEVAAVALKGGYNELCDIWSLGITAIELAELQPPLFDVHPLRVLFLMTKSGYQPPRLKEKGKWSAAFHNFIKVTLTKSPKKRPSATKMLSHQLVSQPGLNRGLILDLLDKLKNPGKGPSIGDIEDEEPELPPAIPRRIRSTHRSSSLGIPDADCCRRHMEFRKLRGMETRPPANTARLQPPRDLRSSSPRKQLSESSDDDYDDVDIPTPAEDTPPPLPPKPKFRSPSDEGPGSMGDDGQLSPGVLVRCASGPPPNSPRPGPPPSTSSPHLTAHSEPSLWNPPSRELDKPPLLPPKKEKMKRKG

Does B1 bind [1]?
Result: binds

Which Kd [2] does the source give for B2 here?
Its Kd is 62.8 nM.

For B3, which Kd [2] is on record?
Its Kd is 37.9 nM.

With B4 as the binder, how does the Ki [3] read?
The Ki was 5990 nM.

B5 was tested. Which “level of interaction at baseline relative to full-length wild-type” value [4] did it give?
The value was ~0.33 fold of full-length wild-type.
